Reference: publication PMC7515635
Several values for one entry are separate records, joined by “and”; a condition that tells them apart may be missing. Identical values can stand only once.

Target: HIS6-GABARAP (human) (UniProt O95166)
Assay: native MS; proteins exchanged into ammonium acetate, nanoelectrospray, Synapt G2Si; C53 1-5 µM or IDR 2.5 µM with 5-20 µM ATG8A or GABARAP

Chain of HIS6-GABARAP (human) (O95166 whole entry): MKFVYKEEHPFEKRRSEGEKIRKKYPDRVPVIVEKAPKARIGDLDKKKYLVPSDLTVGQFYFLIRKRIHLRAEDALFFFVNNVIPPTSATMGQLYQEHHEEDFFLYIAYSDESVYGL
Chain of HIS6-HsC53 (Q96JB5 whole entry): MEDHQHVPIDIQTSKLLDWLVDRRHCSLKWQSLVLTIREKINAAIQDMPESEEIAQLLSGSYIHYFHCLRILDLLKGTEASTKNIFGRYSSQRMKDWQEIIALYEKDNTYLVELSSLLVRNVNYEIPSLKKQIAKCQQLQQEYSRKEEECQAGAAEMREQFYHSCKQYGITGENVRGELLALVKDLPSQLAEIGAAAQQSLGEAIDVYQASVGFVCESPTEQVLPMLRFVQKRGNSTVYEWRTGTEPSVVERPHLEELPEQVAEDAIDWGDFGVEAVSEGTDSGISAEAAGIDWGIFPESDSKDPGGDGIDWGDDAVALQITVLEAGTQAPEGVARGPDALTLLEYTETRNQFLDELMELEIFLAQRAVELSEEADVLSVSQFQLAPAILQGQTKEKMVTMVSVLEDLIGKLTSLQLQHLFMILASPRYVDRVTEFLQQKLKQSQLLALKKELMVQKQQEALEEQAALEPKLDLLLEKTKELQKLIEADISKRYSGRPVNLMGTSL

Question: With “HIS6-HsC53 (from UniProt Q96JB5 1-506) (natural protein)” as the substance, how does the stoichiometry N (GABARAP per HsC53) read?
Answer: 1 and 2
